The experiment deals with Neuropilin 1 (NRP1), R&D 3870-N1-025 (UniProt O14786). The experiment in a line: BLI (Octet), biotinylated NRP1 on SA biosensor, 1:1 global fit.
Sequence of Neuropilin 1 (NRP1), R&D 3870-N1-025 (O14786 other isoform, or with tags, fused parts or gaps limits assumed): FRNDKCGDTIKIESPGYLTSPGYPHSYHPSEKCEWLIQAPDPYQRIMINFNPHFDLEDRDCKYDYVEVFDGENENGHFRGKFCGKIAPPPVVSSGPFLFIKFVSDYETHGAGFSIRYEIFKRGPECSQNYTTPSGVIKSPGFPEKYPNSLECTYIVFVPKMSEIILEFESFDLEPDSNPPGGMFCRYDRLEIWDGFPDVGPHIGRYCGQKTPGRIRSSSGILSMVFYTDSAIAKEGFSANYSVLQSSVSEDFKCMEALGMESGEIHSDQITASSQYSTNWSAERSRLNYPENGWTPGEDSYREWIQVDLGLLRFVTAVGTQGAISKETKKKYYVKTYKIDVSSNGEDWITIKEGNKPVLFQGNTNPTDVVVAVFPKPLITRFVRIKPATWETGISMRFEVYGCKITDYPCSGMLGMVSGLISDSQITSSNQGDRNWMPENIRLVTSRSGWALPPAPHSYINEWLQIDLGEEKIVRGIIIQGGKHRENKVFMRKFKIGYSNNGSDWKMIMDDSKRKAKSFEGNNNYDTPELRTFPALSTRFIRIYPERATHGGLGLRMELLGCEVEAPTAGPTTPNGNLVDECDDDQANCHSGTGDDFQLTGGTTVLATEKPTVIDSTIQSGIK

For the substance “Vascular endothelial growth factor (VEGF) (ligand)”, the Kd – broadly, a measure of binding affinity in units of concentration – was 5.53 nM; the koff (usually the rate constant with which the complex falls apart) stood at 0.0015 s⁻¹; the kon (in general, the rate constant with which the complex forms) is 272000 M⁻¹ s⁻¹.

(Values after patent publication US20260139017A1, “COMPOSITIONS AND METHODS USING REELIN IN ALZHEIMER'S DISEASE” (The General Hospital Corporation, priority 2022, published 2026).)
